# Source: paper PMC5487381, “Thioredoxin A Is Essential for Motility and Contributes to Host Infection of Listeria monocytogenes via Redox Interactions” (Frontiers in Cellular and Infection Microbiology, 2017)
# T1: PrfA, the central virulence regulator of Listeria (Listeria monocytogenes EGD-e, UniProt P22262 1-237)
# T1 construct: PrfA, virulence regulator of the Crp/Fnr family, L. monocytogenes EGD-e, full-length ORF; The methods describe the recombinant proteins in general, not PrfA by name
# T1 sequence: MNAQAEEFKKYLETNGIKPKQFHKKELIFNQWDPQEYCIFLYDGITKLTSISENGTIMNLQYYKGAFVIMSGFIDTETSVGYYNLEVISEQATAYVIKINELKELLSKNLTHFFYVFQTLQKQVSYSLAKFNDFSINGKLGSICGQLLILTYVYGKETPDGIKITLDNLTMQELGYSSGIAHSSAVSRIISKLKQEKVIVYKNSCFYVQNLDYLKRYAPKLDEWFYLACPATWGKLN
# Molecular target: T1, PrfA, the central virulence regulator …
# Assay: ITC; TrxA, TrxAox or TrxA active-site mutants (80-200 uM) in the syringe, PrfA, MogR, GmaR or MogR and GmaR (8-20 uM) in the cuvette; 25 C; 25 mM Tris-HCl pH 7.5, 100 mM NaCl; 15 uL injections, 300 s spacing; 1:1 binding model
# Settings: both partners purified
binder,measurement,value
"Listeria monocytogenes thioredoxin A (TrxA) (enzyme, Listeria monocytogenes EGD-e, UniProt P0A4L3 1-103, looked up, Thioredoxin A (TrxA, Lmo1233) of L. monocytogenes EGD-e, full-length ORF; pET30a(+) may add further vector-encoded residues between the His tag and the ORF; also called Lmo1233) MVKEITDATFEQETSEGLVLTDFWATWCGPCRMVAPVLEEIQEERGEALKIVKMDVDENPETPGSFGVMSIPTLLIKKDGEVVETIIGYRPKEELDEVINKYV",binding result,binds
